According to patent US9902783B2, “Antibodies and pharmaceutical compositions containing same useful for inhibiting activity of metalloproteins” (Yeda Research and Development Co. Ltd., priority 2007, dated 2018):

Target: T1, active MMP-9 (Mus musculus, UniProt P41245)
T1 construct: corresponding to active MMP9 lacking the pro-domain was identified; from tissue; host or cells: mouse ascites fluid
Test: co-purification of active MMP-9 with mAb from mice ascites fluid (western blot)
Format: binding
Conditions: co-purified from mice ascites fluid, about 82 KDa band in western blot
Experimental: FIGS. 11A-11D are photographs and models illustrating that 6C6 binds only the active conformation of MMP9 and MMP2. FIG. 11A: Detection of active MMP9 that co-purified with 6C6 from mice ascites fluid. MAb (10 μg) purified from mice ascites fluid containing MMP9, was subjected to western blot (WB) analysis using commercial anti MMP9 antibody. Non related IgG mAb that has been purified in the same manner, served as negative control (MAb Control). Human ProMMP9 purified from Hilla transfected cells served as molecular weight marker to discern the active species. Purification was done by affinity chromatography using protein G beads which bind mAb via its constant domain, leaving the antigen binding site free to interact with the antigen. FIGS. 11B,C: 6C6 mAb immobilized to protein A beads was analyzed for its ability to pull down ProMMP2, ProMMP9, or MMP2 catalytic fragment (lacking the hemopexin and pro domains) from solution. […]
Selected hybridomas were subcloned twice by limited dilutions, followed by large-scale production by ascites tumors primed with pristine (2,6,10,14 tetrametylpentadecane) injected BALB/c mice. […] The elution peak was analyzed by SDS-PAGE.
Purified antibodies were separated in 8% SDS-polyacrylamide gel, transferred to NC membranes (Bio-Rad), and subsequently subjected to immunoblot analysis using anti MMP-9 antibody (Sigma). […] Signals were detected using ECL (Pierce).

T1 sequence (P41245 108-730): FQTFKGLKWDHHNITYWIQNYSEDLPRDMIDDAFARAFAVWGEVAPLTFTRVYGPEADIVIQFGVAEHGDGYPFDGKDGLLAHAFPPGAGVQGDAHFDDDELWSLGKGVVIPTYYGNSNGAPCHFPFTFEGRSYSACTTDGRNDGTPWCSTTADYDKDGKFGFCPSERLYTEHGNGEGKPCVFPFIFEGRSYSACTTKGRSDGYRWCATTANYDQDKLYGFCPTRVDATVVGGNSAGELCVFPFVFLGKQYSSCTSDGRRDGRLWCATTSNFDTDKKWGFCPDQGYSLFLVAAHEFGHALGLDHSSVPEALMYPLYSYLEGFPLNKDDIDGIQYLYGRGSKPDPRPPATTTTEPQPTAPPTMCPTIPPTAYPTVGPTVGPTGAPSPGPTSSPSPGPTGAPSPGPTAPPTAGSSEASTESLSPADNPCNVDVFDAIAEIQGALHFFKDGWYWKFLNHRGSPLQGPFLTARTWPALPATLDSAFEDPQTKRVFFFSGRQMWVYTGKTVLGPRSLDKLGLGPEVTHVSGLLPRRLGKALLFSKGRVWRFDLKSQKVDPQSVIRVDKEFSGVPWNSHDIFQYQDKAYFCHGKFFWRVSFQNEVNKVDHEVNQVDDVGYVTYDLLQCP

B1: 6C6: monoclonal antibody, IgG2a, raised against the hapten Imisdp; MMP-2 and MMP-9 inhibitory; SEQ ID NO: 1 (protein)
chain: CMETTQTPLSLPVSLGDQASISCRSSQSIVHSNGNTFLEWYLQKPGQSPKLLIYKVSNCRFSGVPDRFSGSGSGTDFTLKISRVEAEDLGVYYCFQASHVPPTFGGG
modifications: 6c6 mAb light chain
in vivo complex with active MMP-9: formed a specific in vivo complex
